Laboratory results: patent publication US20110086026A1 (ROCHE PALO ALTO, published 2011)
Where a chain is given by its changes, count along the chain named. Each block holds one binder with its values, some of them ahead of it.

Assays:
[1] = target: T1, Cynomolgus IL-13Rα1 expressed in transfected Ba/F3 cells (Cynomolgus, UniProt A0A7N9D0M5 20-425); experiment: FACS on Ba/F3 cells transfected with Cynomolgus IL-13Rα1, 10 µg/ml
T1 construct: Stably transfected murine Ba/F3 cells
T1 sequence: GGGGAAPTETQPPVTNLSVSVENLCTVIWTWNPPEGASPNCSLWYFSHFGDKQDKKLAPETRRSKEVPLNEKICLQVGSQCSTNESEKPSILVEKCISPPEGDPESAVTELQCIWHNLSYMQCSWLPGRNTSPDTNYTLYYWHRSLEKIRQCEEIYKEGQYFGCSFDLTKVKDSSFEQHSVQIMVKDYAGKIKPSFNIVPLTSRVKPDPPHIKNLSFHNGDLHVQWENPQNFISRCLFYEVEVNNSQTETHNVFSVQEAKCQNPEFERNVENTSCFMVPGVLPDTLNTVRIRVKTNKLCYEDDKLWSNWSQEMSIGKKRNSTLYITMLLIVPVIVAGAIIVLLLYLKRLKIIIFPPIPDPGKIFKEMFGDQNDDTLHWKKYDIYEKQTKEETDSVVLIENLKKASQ
Experimental: The gene coding for IL-13Rα1 was isolated by RT-PCR from Cynomolgus tissue and transfected into in the murine cell line Ba/F3. In order to test whether the HuMabs crossreact with Cynomolgus IL-13Rα1, the stably transfected Ba/F3 cells as well as the parental Ba/F3 cells were incubated with 10 μg/ml of HuMab and control antibodies. As positive control, a polyclonal goat-anti hIL-13Rα1 (R&D Systems) was used. Negative controls included were: a human IgG1 myeloma protein (Nordic) and normal goat serum. Bound antibodies were detected by FACS analysis using an antibody directed against human IgG conjugated with FITC to detect HuMabs and an antibody directed against goat IgG conjugated with FITC to detect goat antibodies. Mean fluorescence intensities (MFI) were compared for the individual antibodies tested on the transfected Ba/F3 line versus the parental line.
All HuMabs of the invention were able to bind to Cynomolgus IL-13Rα1 expressed in transfected Ba/F3 cells. As expected from the close homology between human and Cynomolgus IL-13Rα1, the polyclonal AF152 antibody also bound to the Cynomolgus IL-13Rα1.

[2] = target: T2, extracellular domain of IL-13Rα1 (R&D Systems, UK) (human, UniProt P78552 22-343); experiment: ELISA, immobilized extracellular domain of human IL-13Rα1, detection with anti-human kappa-POD, OD 405nm-492nm
T2 construct: extracellular domain; Bought; also called recombinant human IL-13Rα1 polypeptide; immobilized extracellular domains of human IL-13Rα1
T2 sequence (looked up): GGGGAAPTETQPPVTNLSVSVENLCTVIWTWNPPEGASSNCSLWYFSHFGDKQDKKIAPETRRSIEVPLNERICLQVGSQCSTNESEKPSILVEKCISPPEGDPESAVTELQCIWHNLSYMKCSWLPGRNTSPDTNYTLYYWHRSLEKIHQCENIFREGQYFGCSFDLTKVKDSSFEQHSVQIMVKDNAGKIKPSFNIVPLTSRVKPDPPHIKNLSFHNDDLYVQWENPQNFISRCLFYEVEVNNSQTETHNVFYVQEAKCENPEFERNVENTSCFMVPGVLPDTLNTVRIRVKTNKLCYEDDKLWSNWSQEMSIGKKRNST
Experimental: To determine the ability of the antibodies of the invention to bind to recombinant IL-13Rα1, the extracellular domain of IL-13Rα1 (R&D Systems, UK) was dissolved in PBS (1 μg/ml) and allowed to adsorb to microtiter plates (NUNC Maxisorb) by incubation over night at 4° C. After washing the plates with washing buffer (WB=0.9% NaCl; 0.1% Tween® 20) unspecific binding sites were blocked by addition of 100 μl incubation buffer (IB=PBS with 1% crotein C and 0.1% Tween® 20) and incubation for 30 min at room-temperature (RT). Then, serially diluted HuMab and control antibodies (100 μl/well; dilutions in IB) were added and incubated for 1 hour at RT. The plates were again washed, and bound human antibodies were detected by incubation with peroxidase-conjugated rabbit anti-human kappa (DAKO, Denmark) in a final dilution of 1:500 in IB. Polyclonal goat anti-hIL-13Rα1 antibodies were detected with peroxidase-conjugated polyclonal donkey anti-goat IgG (Santa Cruz; dilution 1:1000 in IB). After incubation for 1 h at RT and a subsequent washing step, the plates were developed with ready-to-use ABTS® solution (Roche Diagnostics GmbH) at RT in the dark. Absorbance was measured at 405 nm after absorbance of the highest concentration reached a sufficient OD.

human IL-13Rα1 = target: T3, human IL-13Rα1 (human, UniProt P78552 22-427); experiment: radioligand competition: 125I-IL-13 (0.1 nM) binding to CHO cells expressing human IL-13Rα1 and IL-4Rα
T3 construct: whole, on cells; also called IL-13Ralpha1; IL-13Rα1 on CHO cells expressing human IL-13Rα1 and human IL-4Rα
T3 sequence (looked up): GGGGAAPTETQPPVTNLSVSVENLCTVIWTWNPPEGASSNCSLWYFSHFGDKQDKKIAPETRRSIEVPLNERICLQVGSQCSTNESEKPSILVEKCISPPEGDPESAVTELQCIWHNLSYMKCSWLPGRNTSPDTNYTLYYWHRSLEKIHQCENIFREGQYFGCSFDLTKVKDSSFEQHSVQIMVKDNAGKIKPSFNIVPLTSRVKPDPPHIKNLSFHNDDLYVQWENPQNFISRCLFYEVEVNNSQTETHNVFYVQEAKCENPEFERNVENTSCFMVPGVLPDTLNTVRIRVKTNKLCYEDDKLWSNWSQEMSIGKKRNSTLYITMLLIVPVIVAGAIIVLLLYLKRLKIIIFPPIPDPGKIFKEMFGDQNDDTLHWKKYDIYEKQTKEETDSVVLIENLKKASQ
Experimental: ¹²⁵I-IL-13 binding assay was performed using CHO cells expressing human IL-13Rα1 and human IL-4Rα in binding buffer (25 mM HEPES, 150 mM NaCl, 1 mM CaCl₂, 5 mM MgCl₂, and 0.5% bovine serum albumin, adjusted to pH 7.2). 1×10⁵ cells per well were mixed with the antibodies and preincubated for 15 minutes to 1 hour. 0.1 nM ¹²⁵I-IL-13 was added, and the mix was incubated at 4° C. for 4 hours. The concentration of ¹²⁵I-IL-13 used in the assay was determined from saturation binding analysis, competition analysis and determination of input ¹²⁵I-IL-13 to reach equilibrium binding with the cell line. Samples were harvested onto a GF/C filter plate pretreated with 1% PEI/0.5% BSA and counted on Packard TopCount Scintillation counter. Data analysis was performed in PRISM using nonlinear regression curve fit (GraphPad Software, San Diego, Calif.).

B3: HuMab LC5002-002 (antibody, human IgG1, V domains shown)
VH: EVQLLESGGGLVQPGGSLRLSCAASGFTFNIYAMNWVRQAPGKGLEWVSVISGRGITTYYADSVKGRFTISRDNSKNTLYLQMNSLRADDTAVYYCAKGSSSWTDFDYWGQGTLVTVSS
VL: DIQMTQSPSSLSASVGDRVTITCRASQGISRWVAWYQQKPEKAPKSLIYAASSLQSGVPSRFSGSGSGTDFTLTISSLQPEDFATYYCQQYNSYPWTFGQGTKVEIK
notes: Human IgG1 kappa from a HuMab mouse hybridoma; Only the variable domains are tied to this antibody; also called hu-MAB<h-IL-13R alpha>LC.5002-002 (DSM ACC2709)
MFI Ba/F3_Cyno_IL-13Rα1 [1]: 83.7 MFI | IC50 (read off the curve) (human IL-13Rα1): ~0.1 nM | EC50 (read off the curve) [2]: ~1 nM

B4: HuMab LC5002-003 (antibody, V domains shown)
VH: B3 VH with G10D, V12I, N84D, D89E, S102Y
VL: B3 VL with R31S, V33L
notes: Human IgG1 kappa from a HuMab mouse hybridoma; Only the variable domains are tied to this antibody; also called LC50002-003; hu-MAB<h-IL-13Ralpha>LC.5002-003 (DSM ACC2710)
MFI Ba/F3_Cyno_IL-13Rα1 [1]: 82.4 MFI | IC50 (read off the curve) (human IL-13Rα1): ~0.2 nM | EC50 (read off the curve) [2]: 1 to 2 nM

The remaining lines, values ahead:

MFI Ba/F3_Cyno_IL-13Rα1 [1]: 19 MFI | EC50 (read off the curve) [2]: ~0.8 nM
B1: HuMab LC5002-007 (antibody, human IgG1, V domains shown)
VH: QVQLVQSGAEVKKPGSSVKVSCKVSGGTFSSYAFSWVRQAPGQGLEWMGRIIPILGRTNYAQKFQGRVTITADKSTSTAYMEVSSLRSEDTAVYYCAREGETLDYFYYGMDVWGQGTTVTVSS
VL: EIVLTQSPGTLSLSPGERATLSCRASQSVSSSYLAWYQQKPGQAPRLLIYGASSRAIGIPDRFSGSGSGTDFTLTISRLEPEDFAVYYCQHYGSSLTFGGGTKVEIK
notes: Human IgG1 kappa from a HuMab mouse hybridoma; Only the variable domains are tied to this antibody; also called hu-MAB<h-IL-13R alpha>LC.5002-007 (DSM ACC2712)

MFI Ba/F3_Cyno_IL-13Rα1 [1]: 102 MFI | IC50 (read off the curve) (human IL-13Rα1): ~0.1 nM | EC50 (read off the curve) [2]: ~1 nM
B2: HuMab LC5002-005 (antibody, V domains shown)
VH: EVQVLDSGGGLVQPGGSLRLSCTASGFTFRLYTMSWVRQTPGRGLEWVSGISGSGLSTYFADSVKGRFTISRDNSKNTVYLQMNSLRAEDTAVYYCAKEGDWIYFDSWGQGTLVIVSS
VL: B3 VL with R31S, V33L, Y94H, W96P, V104L
notes: Only the variable domains are tied to this antibody; also called hu-MAB<h-IL-13Ralpha>LC.5002-005 (DSM ACC2711)
